Results reported in patent publication US20260356921 (published 2026).

Molecular target: SARS-CoV (2003) RBD (SARS-CoV, UniProt P59594)
Experiment: BLI

B1: VHH-Fc (antibody, V domains shown)
VH: QVQLQESGGGLVQTGGSLRLSCAASGSFFSINDMGWYRQAPGKQRELVAMITGDDSTNYADSVKGRFTISRDNLKNTVYLQMNSLKPEDTALYYCNAEVKVIIWDSRFNYYWGQGTQVTVSS
Binder B1 has a Kd of 13 nM.
